{"source": "patent US20180319855A1", "about": "“GENETICALLY MUTATED AEQUORIN-BASED BIOSENSORS WITH EXTRA SENSITIVITY TO CALCIUM AND IMPROVED BIOLUMINESCENCE INTENSITY” (CENTRE NATIONAL DE LA RECHERCHE SCIENTIFIQUE (CNRS), priority 2015, published 2018)", "molecules": {"B1": {"name": "Redq/Q159T: aporedquorin (tdTomato-aequorin fusion) mutant Q159T (SEQ ID NO:22) (protein)", "chain": "MVSKGEEVIKEFMRFKVRMEGSMNGHEFEIEGEGEGRPYEGTQTAKLKVTKGGPLPFAWDILSPQFMYGSKAYVKHPADIPDYKKLSFPEGFKWERVMNFEDGGLVTVTQDSSLQDGTLIYKVKMRGTNFPPDGPVMQKKTMGWEASTERLYPRDGVLKGEIHQALKLKDGGHYLVEFKTIYMAKKPVQLPGYYYVDTKLDITSHNEDYTIVEQYERSEGRHHLFLGHGTGSTGSGSSGTASSEDNNMAVIKEFMRFKVRMEGSMNGHEFEIEGEGEGRPYEGTQTAKLKVTKGGPLPFAWDILSPQFMYGSKAYVKHPADIPDYKKLSFPEGFKWERVMNFEDGGLVTVTQDSSLQDGTLIYKVKMRGTNFPPDGPVMQKKTMGWEASTERLYPRDGVLKGEIHQALKLKDGGHYLVEFKTIYMAKKPVQLPGYYYVDTKLDITSHNEDYTIVEQYERSEGRHHLFLSGFDNPRWIGRHKHMFNFLDVNHNGKISLDEMVYKASDIVINNLGATPEQAKRHKDAVEAFFGGAGMKYGVETDWPAYIEGWKKLATDELEKYAKNEPTLIRIWGDALFDIVDKDQNGAITLDEWKAYTKAAGIIQSSEDCEETFRVCDIDESGTLDVDEMTRQHLGFWYTMDPACEKLYGGAVP", "modifications": "mutant aequorin"}, "B2": {"name": "Redq/Q159D: aporedquorin (tdTomato-aequorin fusion) mutant Q159D (SEQ ID NO:21) (protein)", "chain": "MVSKGEEVIKEFMRFKVRMEGSMNGHEFEIEGEGEGRPYEGTQTAKLKVTKGGPLPFAWDILSPQFMYGSKAYVKHPADIPDYKKLSFPEGFKWERVMNFEDGGLVTVTQDSSLQDGTLIYKVKMRGTNFPPDGPVMQKKTMGWEASTERLYPRDGVLKGEIHQALKLKDGGHYLVEFKTIYMAKKPVQLPGYYYVDTKLDITSHNEDYTIVEQYERSEGRHHLFLGHGTGSTGSGSSGTASSEDNNMAVIKEFMRFKVRMEGSMNGHEFEIEGEGEGRPYEGTQTAKLKVTKGGPLPFAWDILSPQFMYGSKAYVKHPADIPDYKKLSFPEGFKWERVMNFEDGGLVTVTQDSSLQDGTLIYKVKMRGTNFPPDGPVMQKKTMGWEASTERLYPRDGVLKGEIHQALKLKDGGHYLVEFKTIYMAKKPVQLPGYYYVDTKLDITSHNEDYTIVEQYERSEGRHHLFLSGFDNPRWIGRHKHMFNFLDVNHNGKISLDEMVYKASDIVINNLGATPEQAKRHKDAVEAFFGGAGMKYGVETDWPAYIEGWKKLATDELEKYAKNEPTLIRIWGDALFDIVDKDQNGAITLDEWKAYTKAAGIIQSSEDCEETFRVCDIDESGDLDVDEMTRQHLGFWYTMDPACEKLYGGAVP", "modifications": "mutant aequorin"}}, "key": {"[1]": {"tested_on": "pyramidal neurons of mouse neocortical slices", "experiment": "Bioluminescence Ca2+ imaging of transduced neocortical slices in Mg2+-free ACSF", "assay_type": "cell-based", "details": "native coelenterazine, 25 Hz", "description": "Recombinant Sindbis viruses were prepared and used to express Redquorin mutants and GA in neurons of brain slices as described (Drobac et al., 2010), (Tricoire and Lambolez, 2014). The coding sequences of Redquorin mutants and GA were first subcloned in the plasmid pSinRep5 (Invitrogen) upstream to the polyA signal. The resulting pSinRep5 plasmids encoding the fusion protein sensors as well as the helper plasmid pDH26S (Invitrogen) were then submitted to in vitro transcription to prepare capped RNA using the Megascript SP6 kit (Ambion). […]\nBioluminescence imaging was performed at room temperature using an intensified CDD video camera (ICCD225; Photek) controlled by the IFS32 software (Photek), and mounted on an upright microscope (BX51WI, Olympus) equipped with water immersion objectives ×10 (NA=0.3) and ×20 (NA=0.95). Prior to bioluminescence imaging, fluorescence images of GA- or Redquorin-transduced slices were acquired in the “bright field” mode of the camera using GFP (Semrock) or Cy3ET (Chroma) filter sets. […]\nThe transduced acute brain slices expressing the sensors were then perfused with artificial cerebrospinal fluid (ACSF) without Mg^2+. […] Before the threshold for depolarization, the recorded imaging intensity was very weak consistent with the concept of low background luminescence of photoproteins. […]"}, "endogenous P2Y2 receptor": {"tested_on": "endogenous P2Y2 receptor", "experiment": "Assay of activation of endogenous P2Y2 receptor by ATP in CHO cells stably expressing photoproteins", "assay_type": "cell-based", "details": "CHO cells stably expressing the sensor; for EC50: ATP dose-response, read-out: EC50 (half-maximal effective concentration of ATP for P2Y2 activation)", "description": "Stably prepared CHO cells were loaded with 5 μM coelenterazine in 130 mM NaCl, 5 mM KCl, 1 mM MgCl2, 2 mM CaCl2, 5 mM NaHCO3, 20 mM N-(2-hydroxyethyl) piperazine-N′-ethanesulfonic acid (HEPES), pH 7.4 for 4 h at ambient temperature.\nTo produce stable CHO cell lines, the cells transfected with GA and Redquorin variant plasmids were seeded on six-well plates and grown in the same medium with addition of Geneticin sulfate (G418) (Gibco, UK) at 1 mg/ml under the same conditions with replacement of the medium by fresh medium every 2 days. After 7-10 days of selection, CHO cells were transferred into a medium without antibiotic. To select clones with the highest bioluminescence activity, one run of limiting dilution was performed. CHO cells after G418 selection were seeded on 96-well plates (approximately 0.5 cells per well) and grown in DMEM/F12 medium supplemented with 10% fetal calf serum at 37° C., 5% CO2 for up to 80-90% confluence. Before the bioluminescence measurements, the plates with monoclones of CHO cells expressing the corresponding photoprotein were duplicated and grown for up to 90-100% confluence. Then, the medium was removed and cells were loaded with coelenterazine, and bioluminescence in each well was measured according to the procedure described earlier. As a result, the CHO cell clones with the highest bioluminescence activity were selected.\nAssay of Activation of Endogenous P2Y2 Receptor in CHO Cells\nThe CHO cell lines stably expressing each photoprotein were used in assay of activation of endogenous P2Y2 receptor by ATP. The day before the measurements, the corresponding cells were seeded on 96-well plates with DMEM/F12 medium supplemented with 10% fetal calf serum and were grown at 37° C. with 5% CO2 for up to 90-100% confluence. Then, the medium was replaced by 100 μl of coelenterazine solution per well (5 μM coelenterazine in 130 mM NaCl, 5 mM KCl, 1 mM MgCl2, 2 mM CaCl2, 5 mM NaHCO3, 20 mM HEPES, pH7.4) and the cells were incubated at 23° C. for 4 h. Emission from photoproteins in the cells was measured using a Mithras LB 940 plate luminometer. The ATP was injected at a given concentration to trigger an intracellular Ca^2+ response in the cells and the measurement started immediately. The bioluminescence was integrated over a time interval of 0.05 s for 30 s."}, "[2]": {"experiment": "Thermostability: relative bioluminescence activity after 30 min incubation", "assay_type": "physicochemical", "details": "CLZ-f", "description": "Thermostability of aequorin and redquorin mutant with increased affinity for calcium were compared to wt-aequorin (FIG. 5). The purified photoprotein samples were reconstituted with CLZ-f (as detailed earlier) and let to calibrate at room temperature (20-24° C.) for 20 min before taken the first measurement of total counts using saturating calcium solution (50 mM Tris-HCl, 100 mM CaCl2, pH 7.5). Samples were then incubated at two different temperatures (30 to 40° C.) for 30 min, and let equilibrate at room temperature for 15 minbefore taken the second measurement of total counts in the sample. The relative bioluminescence activity at each temperature was calculated by the ratio 2nd counts (at target T° C.)/1st counts (at initial T° C.) multiplied by 100.\nTable 6 highlights the analysis of thermostability data obtained at two temperatures for aequorin and redquorin mutants, as well as CitA and GA. The values represent the degree of change in luminescence activity compared to wt-aeq, at each temperature. All values are relative to wt-aequorin (at each temperature) and were calculated by dividing the obtained data for each mutant/variant by the data for wt-aeq (as reference). The data were taken from FIG. 5."}}, "note": "Several values for one entry are separate records, joined by “and”; a condition that tells them apart may be missing. Equal values may be shown once."}
{"molecule": "B1", "values": [{"measurement": "bioluminescence imaging response to Ca2+ transients", "setting": "[1]", "value": "performed as well as its analogue GA"}, {"measurement": "[ATP] DL (detection limit)", "setting": "endogenous P2Y2 receptor", "value": "398 nM and 398 ± 17 nM"}, {"measurement": "EC50", "setting": "endogenous P2Y2 receptor", "value": 1700, "unit": "nM"}, {"measurement": "Thermostability, luminescence activity relative to wt-aequorin", "setting": "[2]; 30° C. for 30 min", "value": 0.90}, {"measurement": "Thermostability, luminescence activity relative to wt-aequorin", "setting": "[2]; 40° C. for 30 min", "value": 0.92}]}
{"molecule": "B2", "values": [{"measurement": "bioluminescence imaging response to Ca2+ transients", "setting": "[1]", "value": "significant signal-over-background ratio"}, {"measurement": "[ATP] DL (detection limit)", "setting": "endogenous P2Y2 receptor", "value": "417 ± 16", "unit": "nM"}, {"measurement": "EC50", "setting": "endogenous P2Y2 receptor", "value": "2300 ± 200", "unit": "nM"}, {"measurement": "Thermostability, luminescence activity relative to wt-aequorin", "setting": "[2]; 30° C. for 30 min", "value": 0.91}, {"measurement": "Thermostability, luminescence activity relative to wt-aequorin", "setting": "[2]; 40° C. for 30 min", "value": 0.95}]}
